Test results: IntAct's records for PubMed 29039417

B1: Isoform 2 of Bardet-Biedl syndrome 7 protein (Homo sapiens), Q8IWZ6-2 (parent)
chain: MDLILNRMDYLQVGVTSQKTMKLIPASRHRATQKVVIGDHDGVVMCFGMKKGEAAAVFKTLPGPKIARLELGGVINTPQEKIFIAAASEIRGFTKRGKQFLSFETNLTESIKAMHISGSDLFLSASYIYNHYCDCKDQHYYLSGDKINDVICLPVERLSRITPVLACQDRVLRVLQGSDVMYAVEVPGPPTVLALHNGNGGDSGEDLLFGTSDGKLALIQITTSKPVRKWEIQNEKKRGGILCIDSFDIVGDGVKDLLVGRDDGMVEVYSFDNANEPVLRFDQMLSESVTSIQGGCVGKDSYDEIVVSTYSGWVTGLTTEPIHKESGPGEELKINQEMQNKISSLRNELEHLQYKVLQERENYQQSSQSSKAKSAVPSFGINDKFTLNKDDASYSLILEVQTAIDNVLIQSDVPIDLLDVDKNSAVVSFSSCDSESNDNFLLATYRCQADTTRLELKIRSIEGQYGTLQAYVTPRIQPKTCQVRQYHIKPLSLHQRTHFIDHDRPMNTLTLTGQFSFAEVHSWVVFCLPEVPEKPPAGECVTFYFQNTFLDTQLESTYRKGEGVFKSDNISTISILKDVLSKEATKRKINLNISYEINEVSVKHTLKLIHPKLEYQLLLAKKVQLIDALKELQIHEGNTNFLIPEYHCILEEADHLQEEYKKQPAHLERLYG
partner: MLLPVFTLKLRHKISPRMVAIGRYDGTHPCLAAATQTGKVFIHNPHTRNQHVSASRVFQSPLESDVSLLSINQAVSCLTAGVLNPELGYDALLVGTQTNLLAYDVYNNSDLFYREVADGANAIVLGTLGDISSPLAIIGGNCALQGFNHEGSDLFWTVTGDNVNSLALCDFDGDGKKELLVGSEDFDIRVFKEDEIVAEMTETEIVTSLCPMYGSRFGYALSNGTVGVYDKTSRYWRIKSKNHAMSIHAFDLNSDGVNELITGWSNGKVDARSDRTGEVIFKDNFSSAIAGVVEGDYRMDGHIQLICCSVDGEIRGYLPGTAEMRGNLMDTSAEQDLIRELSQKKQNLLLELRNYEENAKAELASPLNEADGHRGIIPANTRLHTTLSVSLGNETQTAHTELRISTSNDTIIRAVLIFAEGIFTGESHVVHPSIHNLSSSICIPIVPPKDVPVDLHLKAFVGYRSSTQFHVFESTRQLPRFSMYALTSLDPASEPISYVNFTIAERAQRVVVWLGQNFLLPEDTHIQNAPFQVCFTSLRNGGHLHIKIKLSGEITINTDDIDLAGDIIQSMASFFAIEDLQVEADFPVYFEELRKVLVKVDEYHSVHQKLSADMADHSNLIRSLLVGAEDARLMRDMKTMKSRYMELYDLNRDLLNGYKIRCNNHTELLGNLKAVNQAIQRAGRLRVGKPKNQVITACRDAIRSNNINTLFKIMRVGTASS

Variants of: B1
Conditions: with bbs2_human BBS2, Q9BXC9

Variant | effect of a mutation on the interaction
H604E | with no effect
H604A | with no effect
H604K | with no effect
V600K | with no effect
V600A | with no effect
V600E | with no effect
D568K | with no effect
D568A | with no effect
D568E | with no effect
N598K | with no effect
N598A | with no effect
N598E | with no effect
T548E | with no effect
T548A | with no effect
T548K | with no effect
T548S | disrupting interaction strength
N590E | with no effect
N590A | with no effect
N590K | with no effect
L550E | with no effect
L550A | with no effect
L550K | with no effect
I573A | with no effect

Variant | effect of a mutation on the interaction
I573K | with no effect
I573E | with no effect
K577E | with no effect
K577A | with no effect
L554E | with no effect
L554K | with no effect
L554A | with no effect
T572K | with no effect
T572A | with no effect
T572E | with no effect
D578A | with no effect
D578K | with no effect
D578E | with no effect
A584K | with no effect
A584E | with no effect
E599A | with no effect
E599K | with no effect
T552E | with no effect
T552K | with no effect
T552A | with no effect
G563A | with no effect
G563E | with no effect
G563K | with no effect

Variant | effect of a mutation on the interaction
G563R | disrupting interaction strength
T542K | with no effect
T542A | with no effect
T542E | with no effect
K603A | with no effect
K603E | with no effect
R559E | with no effect
R559A | with no effect
R559K | with no effect
R587K | with no effect
R587E | with no effect
R587A | with no effect
I593A | with no effect
I593K | with no effect
I593E | with no effect
K582A | with no effect
K582E | with no effect
S567E | with no effect
S567K | with no effect
S567A | with no effect
F549K | with no effect
F549E | with no effect
F549A | with no effect

Variant | effect of a mutation on the interaction
S571A | with no effect
S571E | with no effect
S571K | with no effect
F545A | with no effect
F545E | with no effect
F545K | with no effect
I589K | with no effect
I589E | with no effect
I589A | with no effect
Y558K | with no effect
Y558E | with no effect
Y558A | with no effect
S581A | with no effect
S581K | with no effect
S581E | with no effect
Q546E | with no effect
Q546A | with no effect
Q546K | with no effect
K586A | with no effect
K586E | with no effect
E596K | with no effect
E596A | with no effect
K588E | with no effect
